Assay results taken from PMC7723414, “Cryo-EM structure of the calcium release-activated calcium channel Orai in an open conformation” (eLife, 2020).

Key:
[1] = molecular target: the molecule itself; test: cryo-EM structure; Orai_(H206A) in amphipol A8-35 combined with 19B5 Fab at a molar ratio of 0.78:1 (Fab to Orai monomer), 5 mM CaCl2, 150 mM NaCl, 20 mM Tris pH 8.5, on ice 30 min; single particle analysis
[2] = molecular target: T1, Orai_(H206A) (Drosophila melanogaster Orai, amino acids 133-341, with C224S, C283T and H206A) (Drosophila melanogaster, UniProt Q9U6B8, C224S | C283T | H206A); test: as above; settings: both partners purified
T1 construct: construct identical to the one of Hou et al., 2018; Hexameric channel; The atomic model holds amino acids 156-305 except 217-239; also called H206A Orai; purified Orai_(H206A)

[3] = molecular target: T2, wild-type Orai (amino acids 120-351) with N-terminal mCherry tag (Drosophila melanogaster, UniProt Q9U6B8); test: live-cell ELISA; intact HEK293 cells transfected with mCherry-tagged Orai constructs or vector; purified 19B5 IgG1 1 uM, 20 min, room temperature; HRP-conjugated secondary antibody, TMB, absorbance at 450 nm; settings: one partner purified
T2 construct: Orai, Drosophila melanogaster, amino acids 120-351; Construct reported in Hou et al., 2018; vector modified from pNGFP-EU; also called Orai-mCherry; source: HEK293, transfected, on intact cells; not shown: mCherry, N-terminal, kept
T2 sequence (Q9U6B8 120-351): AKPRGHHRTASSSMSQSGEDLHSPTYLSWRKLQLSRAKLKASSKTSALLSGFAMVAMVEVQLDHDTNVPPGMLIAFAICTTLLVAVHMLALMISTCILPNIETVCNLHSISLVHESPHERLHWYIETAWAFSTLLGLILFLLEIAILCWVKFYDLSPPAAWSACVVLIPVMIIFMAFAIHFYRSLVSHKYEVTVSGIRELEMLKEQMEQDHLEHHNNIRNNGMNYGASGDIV

B1: Orai_(H206A) (Drosophila melanogaster Orai, amino acids 133-341, with C224S, C283T and H206A) (domain or fragment, UniProt Q9U6B8 133-341, looked up)
chain: MSQSGEDLHSPTYLSWRKLQLSRAKLKASSKTSALLSGFAMVAMVEVQLDHDTNVPPGMLIAFAICTTLLVAVAMLALMISTCILPNIETVSNLHSISLVHESPHERLHWYIETAWAFSTLLGLILFLLEIAILCWVKFYDLSPPAAWSATVVLIPVMIIFMAFAIHFYRSLVSHKYEVTVSGIRELEMLKEQMEQDHLEHHNNIRNNG
notes: construct identical to the one of Hou et al., 2018; Hexameric channel; The atomic model holds amino acids 156-305 except 217-239; also called H206A Orai; purified Orai_(H206A)
stoichiometry N [1]: 6 subunits per channel

B2: 19B5 Fab antibody fragment (Fab, V domains shown)
VH: EVQLVESGGGLVQPKGSLKLSCAASGFTFNTYAMHWVRQAPGKGLEWVARIRTKSNNYATYYADSVKDRFTISRDDSQSMLYLQMNNLKTEDTAMYYCVRQKYGNYFDYWGQGTTLTVSS
VL: DVVMTQSQKFMSTSVGDRVSVTCKASQNVGINVAWYQQKPGQSPKALINSASYRNSGVPDRFTGGGSGTDFTLTINNVQSEDLAEYFCQQCNSYPLTFGAGTKLELR
notes: the deposited model PDB 7KR5 holds the variable domains; mouse IgG1; Fab of the mouse monoclonal IgG1 19B5; source: IgG from mouse hybridoma cells, purified by ion exchange, cleaved with papain; Fab purified (Mono S, SEC)
stoichiometry N [2]: ≤ 3 Fabs per channel

B3: monoclonal antibody 19B5 (mouse IgG1) (antibody, V domains shown)
VH: B2 VH
VL: B2 VL
notes: as the heavy chain of m2 (variable domain in PDB 7KR5), whole mouse IgG1 heavy chain; as the light chain of m2 (variable domain in PDB 7KR5); IgG1; also called 19B5 antibody; Drosophila Orai-19B5 (mouse monoclonal); source: mouse hybridoma cells, purified by ion exchange chromatography
binding result [3]: binds
